Here are results for two substances from paper PMC3079584.

Data set [1] concerns the target Full-length His-She3p (Saccharomyces cerevisiae) (UniProt P38272). Kind of data set: SPR; Biacore 3000, CM-5 chip, She3p amine-coupled, She2p flowed over, HNMD-buffer; steady state, Langmuir isotherm; duplicates. A general note: In SPR one partner is held on a chip, and binding of the other changes the refractive index at the surface.
Data set [2] addresses She2p;She3p (Saccharomyces cerevisiae;Saccharomyces cerevisiae) (UniProt P36068+P38272). Kind of data set: EMSA. The conditions noted are these: EMSA: 20 mM HEPES pH 7.8, 200 mM NaCl, 2 mM MgCl2, 2 mM DTT, 4% glycerol, 30 or 100 ug/ml yeast tRNA, 5 nM RNA, 20 C; filter binding: 20 mM HEPES pH 7.4-7.5 (7.). For orientation: Mobility shift assays separate free from complexed probe on a gel.

pKd: −log10 of the molar value.

Chain of She2p;She3p (Saccharomyces cerevisiae;Saccharomyces cerevisiae) (P36068 whole entry, chain 1 of 2): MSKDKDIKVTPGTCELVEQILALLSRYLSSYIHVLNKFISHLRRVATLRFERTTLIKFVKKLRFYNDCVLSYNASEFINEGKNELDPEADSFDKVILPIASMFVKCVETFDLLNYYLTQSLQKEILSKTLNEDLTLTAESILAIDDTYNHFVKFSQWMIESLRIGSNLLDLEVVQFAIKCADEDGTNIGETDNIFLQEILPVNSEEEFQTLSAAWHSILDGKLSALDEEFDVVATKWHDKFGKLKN
Chain of She2p;She3p (Saccharomyces cerevisiae;Saccharomyces cerevisiae) (P38272 whole entry, chain 2 of 2): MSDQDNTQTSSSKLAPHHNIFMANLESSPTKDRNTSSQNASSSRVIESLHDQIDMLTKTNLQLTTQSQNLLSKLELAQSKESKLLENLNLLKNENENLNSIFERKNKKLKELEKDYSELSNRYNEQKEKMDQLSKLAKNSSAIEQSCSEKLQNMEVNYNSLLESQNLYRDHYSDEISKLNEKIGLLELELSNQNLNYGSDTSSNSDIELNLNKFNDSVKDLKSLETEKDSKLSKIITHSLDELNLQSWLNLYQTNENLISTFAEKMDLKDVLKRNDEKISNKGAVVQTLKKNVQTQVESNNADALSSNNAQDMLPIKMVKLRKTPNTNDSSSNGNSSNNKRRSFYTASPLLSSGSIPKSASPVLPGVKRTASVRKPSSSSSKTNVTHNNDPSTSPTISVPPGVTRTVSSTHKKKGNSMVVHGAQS
Chain of Full-length His-She3p (Saccharomyces cerevisiae) (P38272 whole entry): as the sequence (P38272 whole entry, chain 2 of 2) above

As to “She2p (ΔC) (from UniProt P36068 1-240) (domain or fragment)”, the pKd (usually −log10 of the Kd, conventionally taken in molar units) in data set [1] is 5.70.

In data set [2], HIV-1 TAR (length not stated) gave a negative-log Kd (pKd) below 5.82.
